From patent publication US8076297B2, “Pharmaceutical composition containing polypeptide fragments of serralysins” (Centro De Ingenieria Genetica Y Biotecnologia, priority 2004, dated 2011) come the findings set out here.

“Also recorded” adds a separate entry of the source. Where two headings read alike, the source gives them in different places.

One experiment relates to P3X63Ag8 mieloide tumor. Nature of the experiment: Regression of implanted P3X63Ag8 myeloid tumor. Type of experiment: in vivo, BALB/c mice. The procedure:
The p25 was them injected i.p. to mice BALB/c after of 8 days of implanted P3X63Ag8 mieloide tumor and perfectly development. The doses of 22 μg/kg of weigh of p25 induced total regression in the 80% of the animals treatment. the negative controls death in the end of 30 days, where already had development compact tumors.

In experiment [1] the test system is human microvasculature endothelial cells (HMEC). Nature of the experiment: Formation of tubular structures in matrigel. Type of experiment: cell-based. The note with it: non-cytotoxic concentrations; activation with 10 ng/mL EGF, 1 μg/mL hydrocortisone. An excerpt:
Anti-angiogenic effect of MG2327 and anti-proliferative polypeptides fragments were evaluate by the method of formation of tubular structure in matrigel. Non citotoxic concentration of MG2327 and their fraction p25 y p50 were incubed with human microvasculature endothelial celulas (HMEC). The final result it evalued considering the tubular structure length formed and the number of interconexión between them. For this used Pro Express 4.5 Image-program.
Human micro-vasculature-derived human endotelial cells (HMEC) were assessed for endothelial cord formation on matrigel (Crum R, Szabo S, Folkman J. 1985. Science. 230:1375-8; Vacca, A., Ribatti, D., Presta, M., Minischettti, M., lurlaro, M, Ria, R, Albini, A, Bussolino, F. and Dammaacco, F. 1999. Blood 93:3064) after culture under non-cytotoxic MG2327 and p25 and p50 concentrations (Sanz, L., Pascual, M., Muñoz, A., González, M. A., Salvador C H, Álvarez-Vallina L. 2002. Microvascular Research 63:335-339). Results considered the length of tubular structures and the number of interconnections between them, as calculated by using the Image-Pro Express 4.5 package.

Experiment [2] relates to murine mieloma P3X63Ag8 cells. As to the kind of experiment: Apoptosis: DNA laddering and electron microscopy. The format is cell-based. The protocol:
For determining the kind of tumoral cell death, murine mieloma P3X63Ag8 cells (2*10^7) were treated in vitro with MG2327 at 22 μg/mL. Treated and untreated cells were prepared for ultrastructural transmission electron microscopy studies at different times, and genomic DNA was extracted for DNA laddering assay.
DNA fragmentation was assessed by 2% agarose gel electrophoresis. Apoptosis frequently involves cellular DNA laddering of 180-200 bp, representative of inter-nucleosomal distances (Soldatenkov, V. A., Prasad, S., Voloshin, Y., and Dritschilo, A. 1998. Cell Death Differ. 5:307-12).

The subject of a further experiment is HEp-2 cells. As to the kind of experiment: Anti-proliferative assay on HEp-2 cells, MTT method. Type of experiment: cell-based, human. The protocol:
For the characterization of the antiproliferative activity of MG2327 “in vitro” a panel of human cell lines was evaluated (table 1). A total of 2000 cells, except for PBMC (20000), were seeded in 96 wells culture wells, and different concentrations of MG2327 were added. After 72 hours, the number of survival cells was estimated by addition of MTT (Skehan, P., Storeng, R., Scudiero, D., Monks, A., Mcmahon, J., Vistica, D., Warren, J. T., Bokesch, H., Kenney, S. and BOYD, M. R. 1990. J Natl Cancer Inst. 82:1107). The soluble formazan products were detected at 540 nm in a multiscan plate reader.

The test system of a further experiment is gelatine. As to the kind of experiment: Proteolytic activity, zymogram method. Type of experiment: biochemical. The source says: The method of the cimogeno using gelatine as sustrate (Vacca, A., Iurlaro, M., Ribatti, D., Minischetti, M., Nico, B., Ria, R., Pellegrino, A. and Dammacco, F. 1999. Blood. 94:4143-4155) was employed to verify the proteolytic activity of p50 and p25. Moreover was analized the enzymatic capacity of the degradation of p50.

In another experiment the test system is casein. As to the kind of experiment: Proteolytic activity, modified Anson and Mirsky method. The format is biochemical. An excerpt:
The modify method of Anson y Mirsky (Anson, M. L., Mirsky, A. E. 1932. J. Gen. Physiol. 16: 59) using casein as sustrate, was adjust in our laboratory with Tripsina (y=1.9314x-0.682; R^2=0.999). The proteic fraccions obtained in the chromatography describe in the Example 6 were assay with this method.

B1: p25: 25 kDa non-proteolytic C-terminal fragment of serralysin PRZN_SERMA/PRZN_SERSP, degradation product of p50 (protein)
chain: SYWSETNTGGDNGGHYAAAPLLDDIAAIQHLYGANPSTRTGDTVYGFNSNTGRDFLSTTSNSQKVIFAAWDAGGNDTFDFSGYTANQRINLNEKSFSDVGGLKGNVSIAAGVTIENAIGGSGNDVIVGNAANNVLKGGAGNDVLFGGGGADELWGGAGKDIFVFSAASDSAPGASDWIRDFQKGIDKIDLSFFNKEANSSDFIHFVDHFSGTAGEALLSYNASSNVTDLSVNIGGHQAPDFLVKIVGQVDVATDFIV
What is called IC50 is the concentration that gives 50% inhibition. For the molecule B1, the “animals with total regression” value with P3X63Ag8 mieloide tumor (22 μg/kg i.p., 8 days after tumor implant) was determined as 80%. Besides, in the experiment with P3X63Ag8 mieloide tumor (mouse, in vivo), the tumor regression result is recorded as “induce total regression”. Moreover, in experiment [1], the “differentiation of endothelial cells / tubular net formation” value was “significant inhibition; also recorded: index of net formation inferior to that observed for MG2327 and p50”. The “ultrastructural changes (electron microscopy)” value in experiment [2] was “chromatin condensing, damaged mitrocondria cristae and clustered mitocondria were detected”. The “inhibition of the growing of the tumor cells” value in the experiment with HEp-2 cells (18 μg/mL) stood at 100%. Further, the “activity of 25 kDa fraction compared with 50 kDa fraction” value in the experiment on HEp-2 cells (9 and 18 μg/mL) was “most active”. Besides, in the experiment on HEp-2 cells (doses of 2.5, 4.5 and 9 μg/mL), the “activity of 25 kDa component compared with MG2327” value was “showed major biologic activity”. The 50% inhibitory concentration (IC50) with HEp-2 cells (fractions recovered from SDS gels and renaturalized, p50 with Zn4SO2 5 μM added, read-out: IC50 (FIG. 2)) was 350 pM; with HEp-2 cells (fractions recovered from SDS gels, p50 incubated with 5 μM Zn2SO4, read-out: IC50 of the fractions p25 and p50), 480 pM. The antiproliferative activity result in the experiment on HEp-2 cells (gel-recovered fractions, no zinc added (incubated with EDTA)) was “dosis-dependiente potent anti-proliferative activity; also recorded: strong antiproliferative dose dependent activity”. Also, in the experiment on HEp-2 cells (proteins purified by DEAE chromatography), the anti-proliferative effect result is on record as “showed anti-proliferative effect on HEp.2”. Also, the proteolytic activity result in the experiment on gelatine is “no showed this activity”. In addition, the “proteolytic (enzymatic) activity” value in the experiment with casein is “no showed enzymatic activity; also recorded: non present enzymatic activity; also recorded: do not present activity”.
